Target: T1, Nicotinamide Nucleotide Transhydrogenase (NNT), endogenous, mouse kidney (mouse, UniProt Q61941 44-1086)
T1 construct: Inner mitochondrial membrane protein; absent in C57BL/6J mice (deletion of exons 7-11 of Nnt)
T1 sequence (looked up): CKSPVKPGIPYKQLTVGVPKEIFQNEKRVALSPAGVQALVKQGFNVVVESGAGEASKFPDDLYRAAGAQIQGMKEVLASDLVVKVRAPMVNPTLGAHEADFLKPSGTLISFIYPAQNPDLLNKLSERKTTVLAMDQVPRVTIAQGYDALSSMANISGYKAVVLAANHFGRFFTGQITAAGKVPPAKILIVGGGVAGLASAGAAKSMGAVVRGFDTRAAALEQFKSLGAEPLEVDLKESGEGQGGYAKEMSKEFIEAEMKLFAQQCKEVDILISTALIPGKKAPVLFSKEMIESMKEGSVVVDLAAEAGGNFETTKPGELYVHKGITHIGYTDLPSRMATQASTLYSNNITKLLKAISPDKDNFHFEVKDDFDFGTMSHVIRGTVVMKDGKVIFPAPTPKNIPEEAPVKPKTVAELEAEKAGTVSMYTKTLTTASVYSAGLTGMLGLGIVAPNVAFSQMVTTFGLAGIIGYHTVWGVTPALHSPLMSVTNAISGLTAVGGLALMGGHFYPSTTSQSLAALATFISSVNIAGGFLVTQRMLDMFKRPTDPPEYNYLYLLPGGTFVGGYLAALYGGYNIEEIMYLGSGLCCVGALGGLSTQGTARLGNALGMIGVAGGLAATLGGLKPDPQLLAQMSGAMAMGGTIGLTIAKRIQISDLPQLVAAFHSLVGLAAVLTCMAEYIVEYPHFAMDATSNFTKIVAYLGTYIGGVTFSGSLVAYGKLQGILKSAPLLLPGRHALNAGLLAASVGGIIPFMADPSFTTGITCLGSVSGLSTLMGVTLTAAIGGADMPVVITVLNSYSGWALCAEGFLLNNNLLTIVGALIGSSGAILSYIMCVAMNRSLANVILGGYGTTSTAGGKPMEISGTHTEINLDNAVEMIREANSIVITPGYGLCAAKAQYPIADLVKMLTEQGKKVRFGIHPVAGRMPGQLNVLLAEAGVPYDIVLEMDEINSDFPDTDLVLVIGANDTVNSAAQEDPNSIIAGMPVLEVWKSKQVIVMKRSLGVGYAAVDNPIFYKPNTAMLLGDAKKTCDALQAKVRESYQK
Test: anti-HA immunoprecipitation from mouse kidney lysates, immunoblot
Procedure: Homogenates were then sonicated for 30 seconds (2×15 second bursts at 40% power) and incubated for 45 minutes on ice to complete protein solubilization. Lysates were centrifuged at 8000 rpm for 15 minutes. Protein concentrations were measured with the Protein Assay Dye Reagent Concentrate (catalog #5000006, Bio-Rad). Anti-HA magnetic beads (catalog #88837, ThermoFischer Scientific) were equilibrated in lysis buffer (50 μL beads per reaction in 500 μl of lysis buffer) for 10 minutes at room temperature on a rocking shaker, and then incubated with a total of 4 mg of tissue lysate per sample, overnight, at 4° C. Following four 5-minute washes with 1 ml lysis buffer, the dynabeads were magnetically recovered and precipitated proteins were eluted in 60 μl of 2× Laemmli sample buffer (catalog #1610747, Bio-Rad) with 300 mM Dithiothreitol (DTT). One-third of the eluted proteins (20 μl) was loaded per sample per gel for immunoblotting.
The alleles required to produce the Pkd1-KO+/−CTT mice were moved to this NNT-deficient background (J-Pkd1-KO and J-Pkd1-KO+CTT). […] No NNT was detected in glomeruli or Bowman's capsule. This pattern reproduced the one reported in the Human Protein Atlas (Uhlen, et al., Science Vol. 347, 1260419 (2015)). […] NNT was only detected in immunoprecipitates from “N” cystic mice that express CTT and not in those derived from N-Pkd1-KO mice that express NNT but not CTT.

binding result: binds
B1: 2HA-PC1-CTT (final 200 amino acids of human polycystin-1, aa 4102-4302, with an N-terminal 2xHA epitope tag) (other, not shown: small tags and cut ends)
chain: VILRWRYHALRGELYRPAWEPQDYEMVELFLRRLRLWMGLSKVKEFRHKVRFEGMEPLPSRSSRGSKVSPDVPPPSAGSDASHPSTSSSQLDGLSVSLGRLGTRCEPEPSRLQAVFEALLTQFDRLNQATEDVYQLEQQLHSLQGRRSSRAPAGSSRGPSPGLRPALPSRLARASRGVDLATGPSRTPLRAKNKVHPSST
notes: Expressed from a BAC transgene in renal epithelial cells of Pkd1-KO+CTT mice; detected as a 37-kDa HA-tagged band; also called 2HA-PKD1-CTT; polycystin-1 C-terminal tail
